Reference: patent publication US20240376208A1 (AFFIMED, published 2024)

Key:
[1] = molecular target: T1, recombinant CD16A 158F fused to monomeric human Fc (human, UniProt P08637 17-208); test: ELISA, construct titrated on coated CD16A 158F fused to monomeric human Fc
T1 construct: also called recombinant CD16 antigen variant; not shown: monomeric human Fc
Method: To assess binding of EGFR/CD16 or BCMA/CD16 antibodies to coated antigen in ELISA, 96-well ELISA plates (Immuno Maxisorp, Nunc) were coated overnight at 4° C. with recombinant CD16 antigen variants fused to monomeric human Fc at a concentration of 1.5 μg/mL in 100 mM carbonate-bicarbonate buffer. After blocking with 3% (w/v) skimmed milk powder dissolved in phosphate buffered saline (PBS) serial dilutions of bispecific antibody constructs were incubated on the antigen coated plates for 1.5 h at room temperature. […] After washing, plates were incubated with tetramethylbenzidine substrate (Seramun) for 1-2 min. Reaction was stopped by addition of 0.5 M H₂SO₄ (100 μL/well). Absorbance was measured at 450 nm using a multiwell plate reader, plotted and EC₅₀ values were determined by fitting a nonlinear regression model to sigmoidal dose-response curves (four parameters logistic fit) using GraphPad Prism software.
(§1) Concentration dependent binding of antibody constructs to coated recombinant CD16A antigen, or of soluble monomeric or dimeric CD16 antigen variants to coated or target antigen captured antibody constructs was analyzed in ELISA. Half maximal binding concentrations (EC₅₀) were determined by fitting a nonlinear regression model to sigmoidal dose-response curves (four parameters logistic fit) using GraphPad Prism software.

[2] = molecular target: recombinant CD16A 158V fused to monomeric human Fc (human, UniProt P08637 17-208); test: ELISA, construct titrated on coated CD16A 158V fused to monomeric human Fc
[3] = molecular target: T2, EGFR on tumor target cells (MCF-7, Daudi, DK-MG, HCT-116) (UniProt P00533 25-1210, limits assumed); test: cell-based or functional assay
[4] = molecular target: CD16A on primary human NK cells (human, UniProt P08637 17-254); test: cell-based or functional assay
[5] = molecular target: T3, biotinylated dimeric CD16A antigen (human, UniProt P08637 17-208, limits assumed, biotinylated (site not stated)); test: ELISA, biotinylated dimeric CD16A titrated on construct captured by coated His-tagged human EGFR extracellular domain
T3 construct: Soluble antigen; also called soluble CD16A antigen
Method: (§2) For the capturing approach, 96-well ELISA plates (Immuno Maxisorp, Nunc) were coated overnight at 4° C. with His-tagged human EGFR or BCMA extracellular domain at concentrations of 3.0 or 0.4 μg/mL, respectively. After blocking with 3% (w/v) skimmed milk powder dissolved in phosphate buffered saline (PBS), antigen coated plates were used for capturing of different multivalent bispecific engagers at concentrations of 3-5 μg/mL in PBS containing 0.3% (w/v) skimmed milk powder. After washing three times with 300 μL per well of PBS containing 0.1% (v/v) Tween 20, plates were incubated with serial dilutions of biotinylated dimeric or monomeric CD16A antigen in PBS containing 0.3% (w/v) skimmed milk powder for 1.5 h at room temperature. After washing, plates were incubated with the detection conjugate Streptavidin HRP, 1:10,000 diluted in PBS containing 0.3% (w/v) skimmed milk powder for 1 h followed by washing and incubation with tetramethylbenzidine substrate (Seramun) for 1-2 min. Reaction was stopped by addition of 0.5 M H₂SO₄ (100 μL/well). Absorbance was measured at 450 nm using a multiwell plate reader, plotted and EC₅₀ values were determined by fitting a nonlinear regression model to sigmoidal dose-response curves (four parameters logistic fit) using GraphPad Prism software.
as §1

[6] = molecular target: T4, biotinylated monomeric CD16A antigen (human, UniProt P08637 17-208, limits assumed, biotinylated (site not stated)); test: ELISA, biotinylated monomeric CD16A titrated on coated construct
T4 construct: Soluble antigen; also called soluble CD16A antigen
Method: as §2, §1

[7] = molecular target: T4, biotinylated monomeric CD16A antigen; test: ELISA, biotinylated monomeric CD16A titrated on construct captured by coated His-tagged human EGFR extracellular domain
Method: as §2, §1

[8] = molecular target: T2, EGFR on tumor target cells (MCF-7, …); test: cell-based or functional assay; remark: listed apart in the source
[9] = molecular target: T3, biotinylated dimeric CD16A antigen; test: ELISA, biotinylated dimeric CD16A titrated on coated construct
Method: as §2, §1

T4 sequence (P08637 17-208 limits assumed): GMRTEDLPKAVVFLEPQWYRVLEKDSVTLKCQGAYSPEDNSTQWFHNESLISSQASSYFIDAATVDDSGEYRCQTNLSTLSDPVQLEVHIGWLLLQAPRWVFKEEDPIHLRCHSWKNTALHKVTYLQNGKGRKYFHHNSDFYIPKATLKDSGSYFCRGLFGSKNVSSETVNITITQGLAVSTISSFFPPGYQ
T3 sequence (P08637 17-208 limits assumed): as above
Chain of recombinant CD16A 158V fused to monomeric human Fc (P08637 17-208 F176V): as the sequence (P08637 17-208 limits assumed) above, with F160V counted along it
Chain of CD16A on primary human NK cells (P08637 17-254 limits assumed): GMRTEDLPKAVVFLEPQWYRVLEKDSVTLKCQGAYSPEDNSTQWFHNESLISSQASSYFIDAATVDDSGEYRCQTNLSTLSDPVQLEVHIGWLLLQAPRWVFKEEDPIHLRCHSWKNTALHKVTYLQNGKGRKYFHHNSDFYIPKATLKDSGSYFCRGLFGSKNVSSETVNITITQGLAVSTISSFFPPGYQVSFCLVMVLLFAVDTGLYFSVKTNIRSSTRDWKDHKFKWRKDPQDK
T1 sequence (P08637 17-208): as the sequence (P08637 17-208 limits assumed) above

EC50 [1]: 0.2 nM | EC50 [2]: 0.16 nM | EC50 [5]: 3 nM | EC50 [6]: 4.51 nM | EC50 [7]: 5.54 nM | EC50 [9]: 0.99 nM
B1: aBi-scDb-Fc_05 (bispecific antibody)
chain 1: DKTHTCPPCPAPEFEGGPSVFLFPPKPKDTLMISRTPEVTCVVVAVSHEDPEVKFNWYVDGVEVHNAKTKPREEQYNSTYRVVSVLTVLHQDWLNGKEYKCKVSNKALPAPIEKTISKAKGQPREPQVYTLPPSREEMTKNQVSLTCLVKGFYPSDIAVEWESNGQPENNYKTTPPVLDSDGSFFLTSKLTVDKSRWQQGNVFSCSVMHEALHNHYTQKSLSLSPGGGGGSGGGGSSYVLTQPSSVSVAPGQTATISCGGHNIGSKNVHWYQQRPGQSPVLVIYQDNKRPSGIPERFSGSNSGNTATLTISGTQAMDEADYYCQVWDNYSVLFGGGTKLTVLGGSGGSQVQLVQSGAEVKKPGESLKVSCKASGYTFTSYYMHWVRQAPGQGLEWMGAIEPMYGSTSYAQKFQGRVTMTRDTSTSTVYMELSSLRSEDTAVYYCARGSAYYYDFADYWGQGTLVTVSSGGSGGSGGSGGSGGSGGSSYVLTQPSSVSVAPGQTATISCGGHNIGSKNVHWYQQRPGQSPVLVIYQDNKRPSGIPERFSGSNSGNTATLTISGTQAMDEADYYCQVWDNYSVLFGGGTKLTVLGGSGGSQVQLVQSGAEVKKPGESLKVSCKASGYTFTSYYMHWVRQAPGQGLEWMGAIEPMYGSTSYAQKFQGRVTMTRDTSTSTVYMELSSLRSEDTAVYYCARGSAYYYDFADYWGQGTLVTVSSAAAGSHHHHHH
chain 2: QVQLQESGPGLVKPSETLSLTCTVSGGSVSSGSYYWSWIRQPPGKGLEWIGYIYYSGSTNYNPSLKSRVTISVDTSKNQFSLKLSSVTAADTAVYYCARNPISIPAFDIWGQGTMVTVSSGGSGGSGGSGGSGGSGGSQPVLTQPPSVSVAPGKTARITCGGNNIGSKSVHWYQQKPGQAPVLVIYYDSDRPSGIPERFSGSNSGNTATLTISRVEAGDEADYYCQVWDTSSDHVLFGGGTKLTVLDKTHTCPPCPAPEFEGGPSVFLFPPKPKDTLMISRTPEVTCVVVAVSHEDPEVKFNWYVDGVEVHNAKTKPREEQYNSTYRVVSVLTVLHQDWLNGKEYKCKVSNKALPAPIEKTISKAKGQPREPQVYTLPPSREEMTKNQVSLYCLVKGFYPSDIAVEWESNGQPENNYKTTPPVLDSDGSFFLYSKLTVDKSRWQQGNVFSCSVMHEALHNHYTQKSLSLSPGGGGGSGGGGSSYVLTQPSSVSVAPGQTATISCGGHNIGSKNVHWYQQRPGQSPVLVIYQDNKRPSGIPERFSGSNSGNTATLTISGTQAMDEADYYCQVWDNYSVLFGGGTKLTVLGGSGGSQVQLVQSGAEVKKPGESLKVSCKASGYTFTSYYMHWVRQAPGQGLEWMGAIEPMYGSTSYAQKFQGRVTMTRDTSTSTVYMELSSLRSEDTAVYYCARGSAYYYDFADYWGQGTLVTVSSGGSGGSGGSGGSGGSGGSSYVLTQPSSVSVAPGQTATISCGGHNIGSKNVHWYQQRPGQSPVLVIYQDNKRPSGIPERFSGSNSGNTATLTISGTQAMDEADYYCQVWDNYSVLFGGGTKLTVLGGSGGSQVQLVQSGAEVKKPGESLKVSCKASGYTFTSYYMHWVRQAPGQGLEWMGAIEPMYGSTSYAQKFQGRVTMTRDTSTSTVYMELSSLRSEDTAVYYCARGSAYYYDFADYWGQGTLVTVSSGAAEPEA
notes: Asymmetric knob/hole Fc construct with four anti-CD16A Fv domains and only one anti-EGFR Fv domain; all other places print 158 and 159
EC50 [pM], 4 h calcein-release cytotoxicity on Daudi target cells, NK cells E:T 5:1 [3]: 39.9 pM | Emax [%], 4 h calcein-release cytotoxicity on Daudi target cells, NK cells E:T 5:1 [3]: 27.2% | Emax [%], 4 h calcein-release NK cell fratricide assay, E:T 1:1 [4]: 27.1% | EC50 [pM], 4 h calcein-release cytotoxicity on MCF-7 target cells, NK cells E:T 5:1 [8]: 5 pM | Emax [%], 4 h calcein-release cytotoxicity on MCF-7 target cells, NK cells E:T 5:1 [8]: 34.2%
